Target: T1, DJ-1 (human (endogenous in M17D neuroblastoma cells)), Q99497
T1 chain: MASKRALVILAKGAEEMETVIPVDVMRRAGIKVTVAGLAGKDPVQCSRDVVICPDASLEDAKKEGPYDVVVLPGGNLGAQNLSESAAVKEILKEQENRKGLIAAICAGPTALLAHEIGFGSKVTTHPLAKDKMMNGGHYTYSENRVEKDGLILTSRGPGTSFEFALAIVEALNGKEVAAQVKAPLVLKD
Assay: cross-linking
Conditions: remark: other sources report otherwise

stoichiometry N: 2
B1: DJ-1, Q99497 1-189 (natural protein)
chain: T1 chain
